Data as given in article PMC3575409, “Identification of a Novel Protein-Protein Interaction Motif Mediating Interaction of GPCR-Associated Sorting Proteins with G Protein-Coupled Receptors” (PLoS ONE, 2013).
One block for each substance: values may come before it.

Assays:
[1] = biological target: T1, GST-fused C-tail of the calcitonin receptor (residues 407–490); experiment: pull-down; GST-fused receptor C-tails immobilized on glutathione-Sepharose beads, incubated with [35S]-labelled in vitro translated GASPs 1 h at 4°C; 20 mM Tris-HCl pH 7.4, 150 mM NaCl, 1 mM EDTA, 1 mM DTT, 10% glycerol, 1% Triton X-100; Phosphor-imager quantification
T1 sequence (P30988 whole entry, species assumed, looked up): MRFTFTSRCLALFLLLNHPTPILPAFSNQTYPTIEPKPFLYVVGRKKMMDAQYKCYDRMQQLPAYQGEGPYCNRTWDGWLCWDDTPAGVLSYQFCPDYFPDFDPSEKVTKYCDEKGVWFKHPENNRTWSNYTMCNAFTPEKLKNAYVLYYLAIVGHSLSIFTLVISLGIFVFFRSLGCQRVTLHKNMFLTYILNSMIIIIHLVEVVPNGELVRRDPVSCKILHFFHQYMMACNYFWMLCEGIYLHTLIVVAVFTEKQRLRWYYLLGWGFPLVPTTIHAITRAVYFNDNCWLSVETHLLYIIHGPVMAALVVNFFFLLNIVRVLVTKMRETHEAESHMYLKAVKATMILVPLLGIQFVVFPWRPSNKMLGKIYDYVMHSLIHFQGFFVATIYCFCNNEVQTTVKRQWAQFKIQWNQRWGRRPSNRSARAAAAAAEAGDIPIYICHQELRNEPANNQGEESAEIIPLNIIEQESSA

[2] = biological target: GST-fused C-tail of the histamine 2 receptor (residues 284–349); experiment: as above
Sequence of GST-fused C-tail of the histamine 2 receptor (residues 284–349) (P25021 284-349): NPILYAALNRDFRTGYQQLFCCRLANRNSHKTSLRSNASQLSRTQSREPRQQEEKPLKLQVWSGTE

[3] = biological target: GST-fused C-tail of the insulin growth factor I receptor (residues 1268–1367); experiment: as above
Sequence of GST-fused C-tail of the insulin growth factor I receptor (residues 1268–1367) (P08069 1268-1367): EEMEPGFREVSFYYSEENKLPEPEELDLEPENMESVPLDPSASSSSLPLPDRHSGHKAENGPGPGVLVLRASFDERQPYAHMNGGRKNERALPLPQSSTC

[4] = biological target: GST-fused C-tail of the muscarinic M1 acetylcholine receptor (residues 414–460); experiment: as above
[5] = biological target: GST-fused C-tail of the type III transforming growth factor β receptor (residues 805–849); experiment: as above
Sequence of GST-fused C-tail of the type III transforming growth factor β receptor (residues 805–849) (Q03167 805-849): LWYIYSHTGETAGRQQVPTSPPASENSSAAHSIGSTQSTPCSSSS

[6] = biological target: GST-fused C-tail of the α isoform of the thromboxane A2 receptor (residues 304–343); experiment: as above
[7] = biological target: GST-fused C-tail of the β1 adrenergic receptor (residues 373–477); experiment: as above
[8] = biological target: GST-fused C-tail of the δ-opioid receptor (residues 314–372); experiment: as above
free GST = experiment: as above
[9] = biological target: GST-fused C-tail of the muscarinic M1 acetylcholine receptor (residues 414–460); experiment: GST pull-down; details: parent: est. 100; read off a plot
[10] = biological target: GST-fused C-tail of the β1 adrenergic receptor (residues 373–477); experiment: GST pull-down; details: parent: est. 100; read off a plot
[11] = biological target: T1, GST-fused C-tail of the calcitonin receptor (residues 407–490); experiment: GST pull-down; details: parent: est. 100; read off a plot

Sequence of GPCR-associated sorting protein 2 (GASP-2), full-length (from UniProt Q96D09) SWFW>AAAA in first GASP motif; SWFW>AAAA in second GASP motif (GASP2-dm; residue numbers not printed) (Q96D09 whole entry, change not shown): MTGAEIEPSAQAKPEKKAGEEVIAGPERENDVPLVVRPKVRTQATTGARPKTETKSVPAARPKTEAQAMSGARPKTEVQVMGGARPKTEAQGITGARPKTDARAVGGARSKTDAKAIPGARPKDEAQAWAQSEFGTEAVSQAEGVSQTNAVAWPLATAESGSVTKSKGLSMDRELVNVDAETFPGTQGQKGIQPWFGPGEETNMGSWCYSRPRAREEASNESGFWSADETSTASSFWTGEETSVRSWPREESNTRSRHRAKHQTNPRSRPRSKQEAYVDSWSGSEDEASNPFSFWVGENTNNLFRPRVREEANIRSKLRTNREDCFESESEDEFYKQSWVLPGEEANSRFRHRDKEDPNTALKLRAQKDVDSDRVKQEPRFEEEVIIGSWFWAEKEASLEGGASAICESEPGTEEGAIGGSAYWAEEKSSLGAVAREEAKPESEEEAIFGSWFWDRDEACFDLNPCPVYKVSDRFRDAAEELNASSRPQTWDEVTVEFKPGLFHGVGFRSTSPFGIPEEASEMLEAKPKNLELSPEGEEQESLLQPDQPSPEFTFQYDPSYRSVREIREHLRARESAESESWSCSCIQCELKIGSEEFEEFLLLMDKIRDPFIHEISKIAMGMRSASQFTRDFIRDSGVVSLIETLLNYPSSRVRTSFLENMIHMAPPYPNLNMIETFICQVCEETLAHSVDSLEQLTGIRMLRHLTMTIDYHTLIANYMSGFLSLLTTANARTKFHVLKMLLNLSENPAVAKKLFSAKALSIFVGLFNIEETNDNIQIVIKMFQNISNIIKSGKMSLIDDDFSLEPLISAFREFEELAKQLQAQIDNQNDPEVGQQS
Sequence of GASP-9 (Q7L311 whole entry): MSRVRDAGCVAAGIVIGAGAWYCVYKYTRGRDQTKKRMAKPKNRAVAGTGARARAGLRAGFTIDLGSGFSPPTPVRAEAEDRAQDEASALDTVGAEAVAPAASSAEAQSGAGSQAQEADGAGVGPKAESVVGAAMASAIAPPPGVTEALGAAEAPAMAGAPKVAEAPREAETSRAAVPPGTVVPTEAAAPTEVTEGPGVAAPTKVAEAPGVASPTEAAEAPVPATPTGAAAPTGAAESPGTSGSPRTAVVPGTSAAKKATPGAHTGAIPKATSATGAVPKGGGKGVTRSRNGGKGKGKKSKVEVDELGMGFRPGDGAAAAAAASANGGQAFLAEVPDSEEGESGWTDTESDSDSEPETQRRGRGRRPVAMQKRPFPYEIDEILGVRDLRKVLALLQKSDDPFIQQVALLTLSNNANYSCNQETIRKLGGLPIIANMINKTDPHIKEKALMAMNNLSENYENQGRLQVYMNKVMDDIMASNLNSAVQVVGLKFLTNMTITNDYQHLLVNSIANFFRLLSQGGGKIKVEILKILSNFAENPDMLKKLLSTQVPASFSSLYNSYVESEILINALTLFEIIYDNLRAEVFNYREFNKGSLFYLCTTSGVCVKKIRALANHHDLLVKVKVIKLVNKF
Sequence of GPCR-associated sorting protein 2 (GASP-2), full-length (from UniProt Q96D09) SWFW>AAAA in first GASP motif (GASP2-m1; residue numbers not printed) (Q96D09 whole entry, change not shown): as the sequence (Q96D09 whole entry, change not shown) above
Sequence of GPCR-associated sorting protein 2 (GASP-2), full-length (from UniProt Q96D09) SWFW>AAAA in second GASP motif (GASP2-m2; residue numbers not printed) (Q96D09 whole entry, change not shown): as above

percent of GASP input retained (% of GASP input) [1]: 2 | percent of GASP input retained (% of GASP input) [2]: 2 | percent of GASP input retained (% of GASP input) [3]: < 1 | percent of GASP input retained (% of GASP input) [4]: 2 | percent of GASP input retained (% of GASP input) [5]: < 1 | percent of GASP input retained (% of GASP input) [6]: 2 | percent of GASP input retained (% of GASP input) [7]: 2 | percent of GASP input retained (% of GASP input) [8]: 2 | percent of GASP input retained (% of GASP input) (free GST): < 1
Substance: GASP-9 (from UniProt Q7L311 1-632) (natural protein)

percent of parent (% of wild-type GASP-2) [9]: 24 | percent of parent (% of wild-type GASP-2) [10]: 27
Substance: GPCR-associated sorting protein 2 (GASP-2), full-length (from UniProt Q96D09) SWFW>AAAA in first GASP motif (GASP2-m1; residue numbers not printed)

percent of parent (% of wild-type GASP-2) [11]: 20 | percent of parent (% of wild-type GASP-2) [9]: 5.5 | percent of parent (% of wild-type GASP-2) [10]: 1.5
Substance: GPCR-associated sorting protein 2 (GASP-2), full-length (from UniProt Q96D09) SWFW>AAAA in first GASP motif; SWFW>AAAA in second GASP motif (GASP2-dm; residue numbers not printed)

percent of parent (% of wild-type GASP-2) [9]: 20 | percent of parent (% of wild-type GASP-2) [10]: 11
Substance: GPCR-associated sorting protein 2 (GASP-2), full-length (from UniProt Q96D09) SWFW>AAAA in second GASP motif (GASP2-m2; residue numbers not printed)
